Measured values taken from patent US20220227815A1, “COMPOSITIONS AND METHODS USEFUL IN TREATING BRAIN DISEASES” (University of Kansas, priority 2019, published 2022).

What was measured:
[1] = system: myelin in the lateral corpus callosum; test: Remyelination in EAE mouse brain, Luxol fast blue staining; format: in vivo, SJL/elite mice; conditions: EAE mice; BDNF 5.71 nmol/kg ± ADTC5 10 μmol/kg; n=5; compared to BDNF alone or vehicle
From the text: Euthanasia, Brain Perfusion, and Extraction: All mice were euthanized via a CO2 chamber. Immediately following euthanasia, mice underwent cervical dislocation and were transcardially perfused with PBS+0.2% Tween-20 followed by perfusion-fixation with a 4% paraformaldehyde and 30% sucrose PBS solution. Following the fixation, the brains were extracted and post-fixed overnight in the perfusion-fixation solution.
Fixed brain samples were submitted to IHC World (Ellicott City, Md.) for paraffin embedding, tissue sectioning (5 μm), anti-NG2 (Abcam, Cambridge, UK) staining via DAB, and Luxol-fast blue staining. Staining protocols described on the IHC World website for Luxol-fast blue and immunohistochemistry enzyme HRP were performed. […]
Luxol-fast blue and anti-NG2 mAb images were taken under identical conditions on a Zeiss Axioplan 2 microscope (Oberkochen, Germany) equipped with a mercury lamp excitation source, and 40× (Luxol) and 20× (anti-NG2) air objective lenses. Greyscale images for quantification were taken using a 1344×1024 Orca ER CCD camera (Hamamatsu Photonics, Japan), color images for qualitative purposes were taken using a 1.3 MP Spot Color camera (Spot Imaging, Sterling Heights, Mich.). […] The mean value of each ROI from each image was recorded. […] The integrated mean grey value for each ROI from each image was recorded. […]

[2] = system: EGR1, ARC, and NOS1 mRNA transcripts; test: Fluorescent in situ hybridization of mRNA transcripts in EAE mouse cortex; format: in vivo, SJL/elite mice; conditions: across the three groups, n=5
Experimental: Coronal brain sections (5 μm thickness) from mid- and hind-brain were sectioned and washed three times in PBS before mounting on gelatin-coated glass slides (Superfrost Plus, Thermo Fisher Scientific). Tissue was allowed to dry at RT and then stored at −20° C. until use. Fluorescent in situ hybridization (FISH) was performed using RNAscope® Technology 2.0, Advanced Cell Diagnostics (ACD), Hayward, Calif.) Multiplex Reagent Kit V2. See Vasquez, J. J.; Hussien, R.; Aguilar-Rodriguez, B.; Junger, H.; Dobi, D.; Henrich, T. J.; Thanh, C.; Gibson, E.; Hogan, L. E.; McCune, J.; Hunt, P. W.; Stoddart, C. A.; Laszik, Z. G. Elucidating the Burden of HIV in Tissues Using Multiplexed Immunofluorescence and In Situ Hybridization: Methods for the Single-Cell Phenotypic Characterization of Cells Harboring HIV In Situ. J Histochem Cytochem 2018, 66, (6), 427-446; Gershon, T. R.; Crowther, A. J.; Liu, H.; Miller, C. R.; Deshmukh, M. Cerebellar granule neuron progenitors are the source of Hk2 in the postnatal cerebellum. Cancer Metab 2013, 1, (1), 15; and Smith, P. A.; Schmid, C.; Zurbruegg, S.; Jivkov, M.; Doelemeyer, A.; Theil, D.; Dubost, V.; Beckmann, N. Fingolimod inhibits brain atrophy and promotes brain-derived neurotrophic factor in an animal model of multiple sclerosis. J Neuroimmunol 2018, 318, 103-113. […]

B1: BDNF: recombinant brain-derived neurotrophic factor (13 kDa monomer), Peprotech (protein, UniProt P23560 19-247, looked up)
Neurotrophic factor BDNF …: APMKEANIRGQGGLAYPGVRTHGTLESVNGPKAGSRGLTSLADTFEHVIEELLDEDQKVRPNEENNKDADLYTSRVMLSSQVPLEPPLLFLLEEYKNYLDAANMSMRVRRHSDPARRGELSVCDSISEWVTAADKKTAVDMSGGTVTVLEKVPVSKGQLKQYFYETKCNPMGYTKEGCRGIDKRHWNSQCRTTQSYVRALTMDSKKRIGWRFIRIDTSCVCTLTIKRGR
myelin density in the lateral corpus callosum [1]: myelin discontinuity | NOS mRNA expression [2]: no significant difference
